The supplement of paper PMC10567573

B1: PDLIM4 (parent)
chain: FLDERLYCESHAKARVKPPEGYDV

Variants of: B1
Assay: protein stability index of a GFP-peptide fusion (GPS, HEK-293T) (PSI 1-6); higher = more stable
Settings: c terminus: a fixed tail appended
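Note: lentivirally expressed fusions sorted by FACS into six bins by GFP to DsRed ratio, PSI derived from sequencing read proportions per bin multiplied by bin number.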

Protein stability index of substitutions, site by site:
E20: L 1.1 | V 3 | Y 2.28 | G 2.67 | H 2.82 | S 1.4 | I 2.65 | P 3.31 | A 2.53 | D 1.74 | R 2.7 | T 2.26 | M 2.03 | Q 3.09 | N 2.28
Y22: K 2.46 | E 2.43 | P 3.32 | G 2.68 | L 1.15 | T 2.29 | S 1.04 | D 1.53 | I 3 | M 1.37 | Q 2.55 | W 1.28 | N 2.65 | C 2.75 | R 2.71 | A 1.32 | F 1.43
A14: I 2.02 | D 1.36 | M 1.76 | H 2.56 | K 1.07 | F 1.65 | E 1.31 | G 2.7 | R 2.57 | Q 2.29 | S 2.01 | L 1.75 | N 1.39 | Y 2.23
K13: M 2.85 | Q 1.61 | I 2.71 | Y 2.63 | G 1.72 | H 2.18 | D 1.32 | L 1.45 | N 1.36 | C 1.21 | P 2.24
P19: S 1.11 | W 2.75 | I 1.86 | C 2.26 | F 1.93 | Y 1.43 | T 2.29 | G 2.01 | D 2.15 | R 2.65 | E 1.05 | N 1.21 | K 2.31 | H 1.72 | M 1.77 | L 2.26
E9: T 1.31 | G 1.74 | A 1.57 | H 2.13 | D 1.8 | F 1.49 | Y 2.13 | W 1.22 | S 1.97 | N 2.58 | K 1.42 | V 1.83 | M 2.41 | Q 1.44 | L 2.34
P18: Y 2.46 | F 2.16 | G 1.75 | N 1.54 | T 1.71 | V 1.96 | E 1.75 | S 2.52 | H 1.69 | I 1.01 | R 2.41 | Q 2.38 | M 1.1 | A 2.82 | D 1.36
H11: Y 2.18 | K 1.64 | D 2.39 | M 2.23 | L 1.48 | T 1.99 | E 1.34 | N 1.86 | S 1.98 | F 1.48 | C 1.04 | I 2.19 | A 1.85 | Q 1.34 | R 1.79 | V 1.72
V24: C 1.71 | S 2.82 | R 1.99 | G 1.51 | A 2.09 | D 1.33 | N 2.32 | I 2.47 | L 1.03 | Y 1.6 | T 1.53 | H 1.63 | E 1.6 | P 2.53 | Q 1.11 | M 2.12 | W 1.91
S10: W 3.67 | Q 1.88 | H 1.58 | I 2.17 | T 1.79 | D 2.01 | F 1.61 | N 1.26 | Y 2.75 | C 1.95 | M 2.54 | A 1.44 | K 2.12 | P 2.32 | E 2.1 | V 1.4 | L 2.69 | G 1.97
C8: M 1.64 | R 1.81 | H 2.71 | V 2.28 | N 2.59 | S 2.39 | W 2.14 | T 2.62 | L 2.26 | Y 2.17 | I 1.41 | F 2.3 | K 1.58
